B1: I2C-13 IgG1 (antibody, V domains shown)
VH: EVQLVESGGGLVQPGGSLRLSCAASGFTFSSYGIHWVRQAPGKGLEWVAYIHSGIGYTIYADSVKGRFTISADTSKNTAYLQMNSLRAEDTAVYYCARTSSTSTSVMDYWGQGTLVTVSS
VL: DIQMTQSPSSLSASVGDRVTITCRASQSVSSAVAWYQQKPGKAPKLLIYSASSLYSGVPSRFSGSRSGTDFTLTISSLQPEDFATYYCQQTYWSPGTFGQGTKVEIK
notes: human IgG1
B2: I2C-25 IgG1 (antibody, V domains shown)
VH: EVQLVESGGGLVQPGGSLRLSCAASGFTFSDYYIHWVRQAPGKGLEWVAYIAPYGGFTYYADSVKGRFTISADTSKNTAYLQMNSLRAEDTAVYYCARDSYRRGYVSGFDYWGQGTLVTVSS
VL: B1 VL with T91R, W93S, G96S
notes: human IgG1
B3: I2C-14 IgG1 (antibody, V domains shown)
VH: EVQLVESGGGLVQPGGSLRLSCAASGFTFESYDIHWVRQAPGKGLEWVAAIFSYGGYTTYADSVKGRFTISADTSKNTAYLQMNSLRAEDTAVYYCARGSYGDGRGMDYWGQGTLVTVSS
VL: B1 VL with T91Y, W93Y, S94W
notes: human IgG1
B4: I2C-17 IgG1 (antibody, V domains shown)
VH: EVQLVESGGGLVQPGGSLRLSCAASGFTFSDYFIHWVRQAPGKGLEWVAYIYPASGGTCYADSVKGRFTISADTSKNTAYLQMNSLRAEDTAVYYCARGYIPHMAALDYWGQGTLVTVSS
VL: B1 VL with T91Y, S94W
notes: human IgG1
B5: I2C-15 IgG1 (antibody, V domains shown)
VH: EVQLVESGGGLVQPGGSLRLSCAASGFTFSSYFIHWVRQAPGKGLEWVALIYPDTDDTYYADSVKGRFTISADTSKNTAYLQMNSLRAEDTAVYYCARYGYLGVGAFDYWGQGTLVTVSS
VL: B1 VL with T91L, S94T
notes: human IgG1
B6: I2C-7 IgG1 (antibody, V domains shown)
VH: EVQLVESGGGLVQPGGSLRLSCAASGFTFDSYYIHWVRQAPGKGLEWVAWIDPYGLDTKYADSVKGRFTISADTSKNTAYLQMNSLRAEDTAVYYCAREPGDYGMDYWGQGTLVTVSS
VL: B1 VL with T91A, W93G, P95L, G96L
notes: human IgG1
B7: I2C-5 IgG1 (antibody, V domains shown)
VH: EVQLVESGGGLVQPGGSLRLSCAASGFTFSSYDIHWVRQAPGKGLEWVAWIYPYWGYTIYADSVKGRFTISADTSKNTAYLQMNSLRAEDTAVYYCARGTYAPALDYWGQGTLVTVSS
VL: B1 VL with T91F, W93S, S94Y, P95L, G96S
notes: human IgG1
B8: I2C-12 IgG1 (antibody, V domains shown)
VH: EVQLVESGGGLVQPGGSLRLSCAASGFTFSSYFIHWVRQAPGKGLEWVAAIHPAFSFTYYADSVKGRFTISADTSKNTAYLQMNSLRAEDTAVYYCARPRLSSAVVLDYWGQGTLVTVSS
VL: B1 VL with T91G, W93Y, S94F
notes: human IgG1
B9: I2C-22 IgG1 (antibody, V domains shown)
VH: EVQLVESGGGLVQPGGSLRLSCAASGFTFSSYSIHWVRQAPGKGLEWVAAIYPYWGTTEYADSVKGRFTISADTSKNTAYLQMNSLRAEDTAVYYCARPSGVTYGYALDYWGQGTLVTVSS
VL: B1 VL with T91Y, W93Y, G96W
notes: human IgG1
B10: I2C-18 IgG1 (antibody, V domains shown)
VH: EVQLVESGGGLVQPGGSLRLSCAASGFTFAGYPIHWVRQAPGKGLEWVAAIDPDGGYTYYADSVKGRFTISADTSKNTAYLQMNSLRAEDTAVYYCARHTGFHRYRGMDYWGQGTLVTVSS
VL: B1 VL with T91Y, S94F, G96P
notes: human IgG1
B11: I2C-3 IgG1 (antibody, V domains shown)
VH: EVQLVESGGGLVQPGGSLRLSCAASGFTFSHYWIHWVRQAPGKGLEWVALIAPGGDYTSYADSVKGRFTISADTSKNTAYLQMNSLRAEDTAVYYCARSGLPGFDYWGQGTLVTVSS
VL: B1 VL with T91Y, Y92K, W93S, G96L
notes: human IgG1
B12: I2C-21 IgG1 (antibody, V domains shown)
VH: EVQLVESGGGLVQPGGSLRLSCAASGFTFSSYYIHWVRQAPGKGLEWVAWIDPYISYTYYADSVKGRFTISADTSKNTAYLQMNSLRAEDTAVYYCARDSELVSGYAMDYWGQGTLVTVSS
VL: B1 VL with T91G, Y92D, W93S, P95L, G96V
notes: human IgG1
B13: I2C-19 IgG1 (antibody, V domains shown)
VH: EVQLVESGGGLVQPGGSLRLSCAASGFTFTSYDIHWVRQAPGKGLEWVAWIDPGLSYTSYADSVKGRFTISADTSKNTAYLQMNSLRAEDTAVYYCARASIGGGVPVMDYWGQGTLVTVSS
VL: B1 VL with T91Y, Y92V, W93T, S94G, G96Y
notes: human IgG1
B14: I2C-16 IgG1 (antibody, V domains shown)
VH: EVQLVESGGGLVQPGGSLRLSCAASGFTFSSYWIHWVRQAPGKGLEWVAAIHPSGSYTYYADSVKGRFTISADTSKNTAYLQMNSLRAEDTAVYYCARVGLLVTSVMDYWGQGTLVTVSS
VL: B1 VL with T91Y, W93Y, S94F
notes: human IgG1
B15: I2A-24 IgG1 (antibody, V domains shown)
VH: EVQLVESGGGLVQPGGSLRLSCAASGFTFSTYGIHWVRQAPGKGLEWVAAIYPGTSYTGYADSVKGRFTISADTSKNTAYLQMNSLRAEDTAVYYCAREYFMGMDYWGQGTLVTVSS
VL: B1 VL with T91Y, W93Y, S94W
notes: human IgG1
B16: I2C-26 IgG1 (antibody, V domains shown)
VH: EVQLVESGGGLVQPGGSLRLSCAASGFTFSDYYIHWVRQAPGKGLEWVADIDSYGGFTYYADSVKGRFTISADTSKNTAYLQMNSLRAEDTAVYYCARDPHFLDDVYVLDYWGQGTLVTVSS
VL: B1 VL with T91Y, Y92S, S94G, P95L, G96W
notes: human IgG1
B17: I2A-37 IgG1 (antibody, V domains shown)
VH: EVQLVESGGGLVQPGGSLRLSCAASGFTFSWYGIHWVRQAPGKGLEWVAYIDSYTSSTYYADSVKGRFTISADTSKNTAYLQMNSLRAEDTAVYYCARSHFGHYDYVMDYWGQGTLVTVSS
VL: B1 VL with T91A, W93D, S94Q, P95L, G96Y
notes: human IgG1
B18: I2A-8 IgG1 (antibody, V domains shown)
VH: EVQLVESGGGLVQPGGSLRLSCAASGFTFYGYYIHWVRQAPGKGLEWVAGIRPGGTYTYYADSVKGRFTISADTSKNTAYLQMNSLRAEDTAVYYCARYRYPAFDYWGQGTLVTVSS
VL: B1 VL with T91R, Y92R, W93Q, S94H, P95L, G96W
notes: human IgG1
B19: I2A-33 IgG1 (antibody, V domains shown)
VH: EVQLVESGGGLVQPGGSLRLSCAASGFTFDDYYIHWVRQAPGKGLEWVAWIDSYGGYTSYADSVKGRFTISADTSKNTAYLQMNSLRAEDTAVYYCARSSYYYPGGFDYWGQGTLVTVSS
VL: B1 VL with T91W, Y92D, W93S, S94T, P95L, G96Y
notes: human IgG1
B20: I2A-12 IgG1 (antibody, V domains shown)
VH: EVQLVESGGGLVQPGGSLRLSCAASGFTFTTYYIHWVRQAPGKGLEWVAYISPEDGYTSYADSVKGRFTISADTSKNTAYLQMNSLRAEDTAVYYCARAYYSAVMDYWGQGTLVTVSS
VL: B1 VL with T91S, Y92W, W93S, S94P, P95A, G96T
notes: human IgG1
B21: I2A-30 IgG1 (antibody, V domains shown)
VH: EVQLVESGGGLVQPGGSLRLSCAASGFTFDSYFIHWVRQAPGKGLEWVAYIYSWGSYTHYADSVKGRFTISADTSKNTAYLQMNSLRAEDTAVYYCARGHRRYFALDYWGQGTLVTVSS
VL: B1 VL with T91V, W93F, S94T
notes: human IgG1
B22: I2A-35 IgG1 (antibody, V domains shown)
VH: EVQLVESGGGLVQPGGSLRLSCAASGFTFSAYDIHWVRQAPGKGLEWVAWIDPYGGDTDYADSVKGRFTISADTSKNTAYLQMNSLRAEDTAVYYCARSPSYMQYGGLDYWGQGTLVTVSS
VL: B1 VL with T91Y, W93S, P95L, G96L
notes: human IgG1

Numbering of substitutions follows the chain as printed. In names and notes the source's numbering stands.

T3 sequence (Q01973 42-147): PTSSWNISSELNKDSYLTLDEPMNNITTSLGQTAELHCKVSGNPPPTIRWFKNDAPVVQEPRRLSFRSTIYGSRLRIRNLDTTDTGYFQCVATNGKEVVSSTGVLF

The first assay deals with T1, extracellular domain of human ROR1 (human, UniProt Q01973 30-406).
T1 construct: bought protein; biotinylated in the bivalent assay format; also called Acro Cat. No. RO1-H522y
T1 sequence (Q01973 30-406 limits assumed): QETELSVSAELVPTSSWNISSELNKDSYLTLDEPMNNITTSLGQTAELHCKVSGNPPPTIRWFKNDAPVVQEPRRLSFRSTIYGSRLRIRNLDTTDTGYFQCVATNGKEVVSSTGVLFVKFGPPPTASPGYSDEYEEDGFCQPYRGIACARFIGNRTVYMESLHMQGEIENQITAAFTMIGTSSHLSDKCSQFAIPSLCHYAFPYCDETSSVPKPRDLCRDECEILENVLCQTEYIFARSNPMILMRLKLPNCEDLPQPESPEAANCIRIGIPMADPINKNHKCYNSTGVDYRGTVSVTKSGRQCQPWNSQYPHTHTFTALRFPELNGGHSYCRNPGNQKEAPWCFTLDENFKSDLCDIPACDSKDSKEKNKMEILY
The experiment in a line: BLI, IgG1 on biosensor, soluble ROR ectodomain. The text has this: (§1) To measure binding affinity in ROR binder discovery campaigns, the VL and VH domains identified in the phage screen described above were formatted into a bivalent monospecific native human full-length IgG1 architecture and immobilized to a biosensor on an Octet (Pall ForteBio) biolayer interferometer. Soluble ROR antigens, including the extracellular domains of ROR1 (Acro Cat. No. RO1-H522γ) and ROR2 (Acro Cat. No. R02-H52E5), as well as the individual ROR1 Frizzled (Acro Cat. No. RO1-H5222), Ig-like (Acro Cat. No. RO1-H5221), and Kringle (Acro Cat. No. RO1-H5223) domains, were then added to the system and binding measured.
(§2) ROR binding candidates, formatted in the bivalent monospecific native human full-length IgG1 architecture, were further characterized for binding to ROR1 and/or ROR2. […] ROR binding candidates were also characterized for their binding to specific ROR1 domains.
With B1, the binding result is on record as “binds”.
Still for that read-out and setting: next, B2: “no binding”.
As for B3, the binding result is “binds”.
On the same count and under the same terms, next, B4: “binds”.
Turning to B5, the binding result is listed as “binds”.
Same read-out and setting: for B6 the value was “no binding”; for B7, “no binding”.
Still for that read-out and setting: next, B8: “binds”.
Still for that read-out and setting: for B9 the value was “binds”; for B10, “binds”; for B11, “no binding”.
As for B12, the binding result was “no binding”.
Take B13: the binding result is on record as “no binding”.
With B14, the binding result is on record as “binds”.
The same measure, in the same setting: next, B15: “binds”; B16: “no binding”.

In the next assay the target is T2, extracellular domain of human ROR2 (human, UniProt Q01974 34-403).
T2 construct: bought protein; biotinylated in the bivalent assay format; also called Acro Cat. No. RO2-H52E5
T2 sequence (Q01974 34-403 limits assumed): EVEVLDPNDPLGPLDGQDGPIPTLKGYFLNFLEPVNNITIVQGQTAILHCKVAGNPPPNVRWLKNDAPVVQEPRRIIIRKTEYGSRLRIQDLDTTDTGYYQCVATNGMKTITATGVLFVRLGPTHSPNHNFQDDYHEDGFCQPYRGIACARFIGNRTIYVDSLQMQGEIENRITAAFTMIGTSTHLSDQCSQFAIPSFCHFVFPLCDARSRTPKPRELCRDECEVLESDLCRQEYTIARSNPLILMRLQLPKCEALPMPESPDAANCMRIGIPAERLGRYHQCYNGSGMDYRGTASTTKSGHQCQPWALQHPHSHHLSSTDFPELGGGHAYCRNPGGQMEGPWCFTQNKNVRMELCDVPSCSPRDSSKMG
The experiment in a line: BLI, IgG1 on biosensor, soluble ROR ectodomain.
Source text: as §1, §2
Take B1: the binding result is “binds”.
Consider B2, for which the binding result is recorded as “binds”.
Take B17: the binding result is on record as “no binding”.
With B3, the binding result was “binds”.
Consider B4, for which the binding result is “binds”.
Regarding B5, the binding result is reported as “binds”.
Consider B18, for which the binding result is listed as “no binding”.
Same read-out and setting: for B6 the value was “binds”.
For the molecule B7, the binding result is “binds”.
B8: the binding result is on record as “binds”.
Still for that read-out and setting: next, B9: “binds”; B19: “no binding”; B10: “binds”.
With B11, the binding result is reported as “binds”.
Consider B12, for which the binding result is reported as “binds”.
As to B13, the binding result is “binds”.
Still for that read-out and setting: next, B20: “no binding”.
On the same count and under the same terms, for B21 the value was “no binding”; for B14, “binds”.
In the case of B15, the binding result is listed as “binds”.
On the same count and under the same terms, next, B16: “binds”.

Another assay has as its target T3, ROR1 Ig-like domain (human, UniProt Q01973 42-147).
T3 construct: also called Acro Cat. No. RO1-H5221
The experiment in a line: BLI, IgG1 on biosensor, soluble ROR1 domain.
Source text: as §1, §2
For B1, the binding result is “binds”.
The same measure, in the same setting: next, B3: “binds”; B4: “binds”.
Still for that read-out and setting: for B5 the value was “binds”; for B8, “binds”.
The same measure, in the same setting: next, B22: “binds”; B14: “binds”.

The record behind these values is patent US20240392002A1 (EXELIXIS, published 2024).
